Test results from patent publication US20230002480A1.

What was measured:
Assay in all cases: cell-based or functional assay
[1] = target: HIV-1 Env of pseudovirus Ce703010054_2A2 (HIV-1)
[2] = target: HIV-1 Env of pseudovirus Ce2060_G9 (HIV-1)
[3] = target: HIV-1 Env of pseudovirus HIV-16055-2.3 (HIV-1)
[4] = target: HIV-1 Env of pseudovirus ZM214M.PL15 (HIV-1)
[5] = target: HIV-1 Env of pseudovirus BJOX015000.11.5 (HIV-1)
[6] = target: HIV-1 Env of pseudovirus 1056_10_TA11_1826 (HIV-1)
[7] = target: HIV-1 Env of pseudovirus C1080.c03 (HIV-1)
[8] = target: HIV-1 Env of pseudovirus 89-F1_2_25 (HIV-1)
[9] = target: HIV-1 Env of pseudovirus Q23.17 (HIV-1)
[10] = target: HIV-1 Env of pseudovirus 3817.v2.c59 (HIV-1)
[11] = target: HIV-1 Env of pseudovirus X1193_c1 (HIV-1)
[12] = target: HIV-1 Env of pseudovirus 928-28 (HIV-1)
[13] = target: HIV-1 Env of pseudovirus 62357_14_D3_4589 (HIV-1)
[14] = target: HIV-1 Env of pseudovirus Ce2010_F5 (HIV-1)
[15] = target: HIV-1 Env of pseudovirus Du172.17 (HIV-1)
[16] = target: HIV-1 Env of pseudovirus 6240_08_TA5_4622 (HIV-1)
[17] = target: HIV-1 Env of pseudovirus 6540.v4.c1 (HIV-1)
[18] = target: HIV-1 Env of pseudovirus 263-8 (HIV-1)
[19] = target: HIV-1 Env of pseudovirus TRO.11 (HIV-1)
[20] = target: HIV-1 Env of pseudovirus CNE8 (HIV-1)
[21] = target: HIV-1 Env of pseudovirus X1254_c3 (HIV-1)
[22] = target: HIV-1 Env of pseudovirus 191084 B7-19 (HIV-1)
[23] = target: HIV-1 Env of pseudovirus ZM135M.PL10a (HIV-1)
[24] = target: HIV-1 Env of pseudovirus T278-50 (HIV-1)
[25] = target: HIV-1 Env of pseudovirus X1632_S2_B10 (HIV-1)
[26] = target: HIV-1 Env of pseudovirus REJO4541.67 (HIV-1)
[27] = target: HIV-1 Env of pseudovirus 1394C9G1(Rev-) (HIV-1)
[28] = target: HIV-1 Env of pseudovirus AC10.0.29 (HIV-1)
[29] = target: HIV-1 Env of pseudovirus 6244_13_B5_4576 (HIV-1)
[30] = target: HIV-1 Env of pseudovirus HIV-001428-2.42 (HIV-1)
[31] = target: HIV-1 Env of pseudovirus 3365.v2.c2 (HIV-1)
[32] = target: HIV-1 Env of pseudovirus Q842.d12 (HIV-1)

B1: N49P23 (antibody, V domains shown)
VH: QVRLVQSGAGARKTGASMKLSCSTSGYTFTTHHGHFINWVRQARGQGLEWMGWMNPMTGQMNIEGKFQGRVTLTRDIYSDTAYMEMTRLTTGDTGTYYCARGDFGQNYPFHYWGQGSLVIVSS
VL: LSALTQPASVSGSPGQSVTISCSGTNRYLVSWYQQHPDKAPKLIIYDDNKRPSGISDRFSASRPDDTASLTISGLQTGDEATYWCASYERFGGGTRLTVLS
IC50 [1]: > 50 µg/mL | IC80 [1]: > 50 µg/mL | MPI [1]: 35 | IC50 [2]: 0.18 µg/mL | IC80 [2]: 0.849 µg/mL | MPI [2]: 99 | IC50 [3]: > 50 µg/mL | IC80 [3]: > 50 µg/mL | MPI [3]: 17 | IC50 [4]: 0.061 µg/mL | IC80 [4]: 0.614 µg/mL | MPI [4]: 100 | IC50 [5]: > 50 µg/mL | IC80 [5]: > 50 µg/mL | MPI [5]: 0 | IC50 [6]: 0.075 µg/mL | IC80 [6]: 0.483 µg/mL | MPI [6]: 100 | IC50 [7]: 1.33 µg/mL | IC80 [7]: 11.3 µg/mL | MPI [7]: 96 | IC50 [8]: > 50 µg/mL | IC80 [8]: > 50 µg/mL | MPI [8]: 5 | IC50 [9]: 0.01 µg/mL | IC80 [9]: 0.046 µg/mL | MPI [9]: 100 | IC50 [10]: > 50 µg/mL | IC80 [10]: > 50 µg/mL | MPI [10]: 41 | IC50 [11]: 0.008 µg/mL | IC80 [11]: 0.038 µg/mL | MPI [11]: 100 | IC50 [12]: 0.021 µg/mL | IC80 [12]: 0.122 µg/mL | MPI [12]: 100 | IC50 [13]: 0.057 µg/mL | IC80 [13]: 0.76 µg/mL | MPI [13]: 95 | IC50 [14]: 1.59 µg/mL | IC80 [14]: 11.6 µg/mL | MPI [14]: 91 | IC50 [15]: > 50 µg/mL | IC80 [15]: > 50 µg/mL | MPI [15]: 45 | IC50 [16]: 0.215 µg/mL | IC80 [16]: 1 µg/mL | MPI [16]: 100 | IC50 [17]: > 50 µg/mL | IC80 [17]: > 50 µg/mL | MPI [17]: 29 | IC50 [18]: 0.012 µg/mL | IC80 [18]: 0.096 µg/mL | MPI [18]: 100 | IC50 [19]: 0.094 µg/mL | IC80 [19]: 0.336 µg/mL | MPI [19]: 100 | IC50 [20]: 6.35 µg/mL | IC80 [20]: 47.3 µg/mL | MPI [20]: 81 | IC50 [21]: 0.022 µg/mL | IC80 [21]: 0.111 µg/mL | MPI [21]: 100 | IC50 [22]: 0.013 µg/mL | IC80 [22]: 0.043 µg/mL | MPI [22]: 100 | IC50 [23]: > 50 µg/mL | IC80 [23]: > 50 µg/mL | MPI [23]: 36 | IC50 [24]: > 50 µg/mL | IC80 [24]: > 50 µg/mL | MPI [24]: 22 | IC50 [25]: 0.13 µg/mL | IC80 [25]: > 50 µg/mL | MPI [25]: 62 | IC50 [26]: 0.008 µg/mL | IC80 [26]: 0.05 µg/mL | MPI [26]: 100 | IC50 [27]: > 50 µg/mL | IC80 [27]: > 50 µg/mL | MPI [27]: 34 | IC50 [28]: > 50 µg/mL | IC80 [28]: > 50 µg/mL | MPI [28]: 0 | IC50 [29]: 0.151 µg/mL | IC80 [29]: 0.57 µg/mL | MPI [29]: 100 | IC50 [30]: 0.036 µg/mL | IC80 [30]: 0.241 µg/mL | MPI [30]: 98 | IC50 [31]: 0.017 µg/mL | IC80 [31]: 0.053 µg/mL | MPI [31]: 100 | IC50 [32]: 0.007 µg/mL | IC80 [32]: 0.022 µg/mL | MPI [32]: 100

B2: N49P22 (antibody, V domains shown)
V domain 1: HIQLLQSGPQVKKSGDTVRISCETSGYNFVDSRIHWVRQTPEKRLRWMGWINPLQGGVNYAPEFQGRIRMTRDTFIDTVYVDLSGLTPADTAYYYCARGIDGKSYPFHFWGHGTRVTVFS
V domain 2: RFALTQPASVSGSPGQTITITCAGGSVSWFHFPPGKTPRLIIYESSKRPSGVSPRFSGSQSGSTASLIISGLQSDDEGTYFCSILEFFGRGTLVTVLS
IC50 [1]: > 50 µg/mL | IC80 [1]: > 50 µg/mL | MPI [1]: 0 | IC50 [2]: > 50 µg/mL | IC80 [2]: > 50 µg/mL | MPI [2]: 19 | IC50 [3]: 4.66 µg/mL | IC80 [3]: 39.7 µg/mL | MPI [3]: 83 | IC50 [4]: > 50 µg/mL | IC80 [4]: > 50 µg/mL | MPI [4]: 25 | IC50 [5]: 1.26 µg/mL | IC80 [5]: 10.8 µg/mL | MPI [5]: 89 | IC50 [6]: 2.99 µg/mL | IC80 [6]: > 50 µg/mL | MPI [6]: 69 | IC50 [7]: 15.9 µg/mL | IC80 [7]: > 50 µg/mL | MPI [7]: 64 | IC50 [8]: > 50 µg/mL | IC80 [8]: > 50 µg/mL | MPI [8]: 10 | IC50 [9]: 0.321 µg/mL | IC80 [9]: 2.4 µg/mL | MPI [9]: 96 | IC50 [10]: > 50 µg/mL | IC80 [10]: > 50 µg/mL | MPI [10]: 12 | IC50 [11]: 3.49 µg/mL | IC80 [11]: 28.5 µg/mL | MPI [11]: 85 | IC50 [12]: > 50 µg/mL | IC80 [12]: > 50 µg/mL | MPI [12]: 32 | IC50 [13]: > 50 µg/mL | IC80 [13]: > 50 µg/mL | MPI [13]: 13 | IC50 [14]: 2.05 µg/mL | IC80 [14]: 11.7 µg/mL | MPI [14]: 93 | IC50 [15]: > 50 µg/mL | IC80 [15]: > 50 µg/mL | MPI [15]: 4 | IC50 [16]: 2.33 µg/mL | IC80 [16]: 9.76 µg/mL | MPI [16]: 93 | IC50 [17]: > 50 µg/mL | IC80 [17]: > 50 µg/mL | MPI [17]: 29 | IC50 [18]: 1.83 µg/mL | IC80 [18]: 18.5 µg/mL | MPI [18]: 89 | IC50 [19]: 0.283 µg/mL | IC80 [19]: 1.36 µg/mL | MPI [19]: 99 | IC50 [20]: 5.35 µg/mL | IC80 [20]: 40.4 µg/mL | MPI [20]: 86 | IC50 [21]: 3.06 µg/mL | IC80 [21]: 29.8 µg/mL | MPI [21]: 84 | IC50 [22]: 0.343 µg/mL | IC80 [22]: 1.64 µg/mL | MPI [22]: 98 | IC50 [23]: > 50 µg/mL | IC80 [23]: > 50 µg/mL | MPI [23]: 27 | IC50 [24]: > 50 µg/mL | IC80 [24]: > 50 µg/mL | MPI [24]: 25 | IC50 [25]: > 50 µg/mL | IC80 [25]: > 50 µg/mL | MPI [25]: 0 | IC50 [26]: 0.792 µg/mL | IC80 [26]: 12.1 µg/mL | MPI [26]: 84 | IC50 [27]: > 50 µg/mL | IC80 [27]: > 50 µg/mL | MPI [27]: 35 | IC50 [28]: > 50 µg/mL | IC80 [28]: > 50 µg/mL | MPI [28]: 0 | IC50 [29]: 0.565 µg/mL | IC80 [29]: 2.48 µg/mL | MPI [29]: 97 | IC50 [30]: 0.73 µg/mL | IC80 [30]: 7.1 µg/mL | MPI [30]: 91 | IC50 [31]: 0.254 µg/mL | IC80 [31]: 0.857 µg/mL | MPI [31]: 98 | IC50 [32]: 0.079 µg/mL | IC80 [32]: 0.359 µg/mL | MPI [32]: 100
